Source: doi:10.1101/2025.04.14.648684

Experiments:
[1] = molecular target: All4144 (GrpE homolog of Anabaena sp. PCC 7120), full length (Anabaena sp. PCC7120); assay: cross-linking
[2] = molecular target: All4144(68–214), N-terminal deletion mutant of All4144 lacking the HTH domain (Anabaena sp. PCC7120); assay: cross-linking

## All4144 (GrpE homolog of Anabaena sp. PCC 7120), full length (natural protein)
[1]
  stoichiometry N: 2

## All4144(68–214), N-terminal deletion mutant of All4144 lacking the HTH domain (domain or fragment)
[2]
  stoichiometry N: 2
